Km, kcat and kcat/Km data for one substance are collected here from paper PMC2790542.

The Km is the substrate concentration at which the rate is half of its maximum. Usually kcat stands for the maximal rate divided by the concentration of active sites. As a reminder, the kcat/Km is the second-order rate constant that governs catalysis at low substrate concentration.

The data set relates to O=C(O)/C=C\Cl. As to the kind of experiment: purified protein. The conditions noted are these: active site.

As for “cis-3-chloroacrylic acid dehalogenase (cis-CaaD) (coryneform bacterium)”, the Km worked out at 200 ± 15 µM, the catalytic constant (kcat) worked out at 5.9 ± 0.1 s⁻¹ and the specificity constant (kcat/Km) is 29000 M⁻¹ s⁻¹.
